The target of one assay is CyPet-Ubc9 (UniProt P63279). Put plainly: FRET or BRET. A general note: Bioluminescence resonance energy transfer reports proximity on the nanometre scale.
The target in assay [1] is CyPet-NS1 (influenza A virus) (UniProt P03496). Put plainly: FRET or BRET.

One may read the Kd as a measure of binding affinity in units of concentration. A higher Kd goes with weaker binding.

UniProt P03496, sequence (P03496 whole entry): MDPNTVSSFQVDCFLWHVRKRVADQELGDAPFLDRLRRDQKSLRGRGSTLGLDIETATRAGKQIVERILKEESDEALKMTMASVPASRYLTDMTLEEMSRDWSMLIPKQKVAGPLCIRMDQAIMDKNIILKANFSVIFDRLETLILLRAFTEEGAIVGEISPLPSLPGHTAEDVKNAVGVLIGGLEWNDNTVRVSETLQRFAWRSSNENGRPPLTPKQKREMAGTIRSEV
UniProt P63279, sequence (P63279 whole entry): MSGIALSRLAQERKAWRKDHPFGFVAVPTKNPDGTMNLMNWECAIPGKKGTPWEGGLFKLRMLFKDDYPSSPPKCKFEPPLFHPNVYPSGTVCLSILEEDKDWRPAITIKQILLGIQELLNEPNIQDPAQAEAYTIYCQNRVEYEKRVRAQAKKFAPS

“YPet-NS1 (from UniProt P03496 1-230) (natural protein)”: in the assay with CyPet-Ubc9, the Kd came out at 4.84 µM. Take “YPet-PIAS1 (from UniProt O75925 1-651) (enzyme)”: the Kd in assay [1] was found to be 2.96 µM.

The values above are taken from publication doi:10.1101/2025.07.29.667540.
